Tests used:
Format in all cases: biochemical, Streptomyces coelicolor
[1] = substrate: CCCC(=O)Oc1ccc([N+](=O)[O-])cc1; experiment: purified protein; details: 50 mM Tris-HCl pH 8.5, 0.1% Triton X-100, 35°C, fitted below substrate-inhibiting concentrations
[2] = substrate: CCCCCC(=O)Oc1ccc([N+](=O)[O-])cc1; experiment: purified protein; details: 50 mM Tris-HCl pH 8.5, 0.1% Triton X-100, 35°C, fitted below substrate-inhibiting concentrations
[3] = substrate: CCCCCCCC(=O)Oc1ccc([N+](=O)[O-])cc1; experiment: purified protein; details: 50 mM Tris-HCl pH 8.5, 0.1% Triton X-100, 35°C, fitted below substrate-inhibiting concentrations
[4] = substrate: CCCCC(=O)Oc1ccc([N+](=O)[O-])cc1; experiment: purified protein; details: 50 mM Tris-HCl pH 8.5, 0.1% Triton X-100, 35°C, fitted below substrate-inhibiting concentrations
[5] = substrate: CC(=O)Oc1ccc([N+](=O)[O-])cc1; experiment: purified protein; details: 50 mM Tris-HCl pH 8.5, 0.1% Triton X-100, 35°C, fitted below substrate-inhibiting concentrations
[6] = substrate: CC(=O)OCC(COC(C)=O)OC(C)=O; experiment: pH-stat titration of released fatty acid; details: 5 mM Tris-HCl pH 8.5, 1% arabic gum emulsion, 35°C
Source text: (§1) pH-stat titration of released fatty acid on EstC

[7] = substrate: CCCC(=O)OCC(COC(=O)CCC)OC(=O)CCC; experiment: pH-stat titration of released fatty acid; details: 5 mM Tris-HCl pH 8.5, 1% arabic gum emulsion, 35°C
Source text: as §1

B1: EstC (Streptomyces coelicolor A3(2)) (protein)
chain: MSRNAAFSPPPSARAYRLRTARGEFAVVDSPAAAGVAPRGVVMMLPGFTGSKEDFTLLHRPLGARGYRTVAVDGRGQYESDGPEHDESAYARPELARDVLAQAAALGTRVHLVGHSLGGQIARAAVLLDPAPFLSLTLMSSGPARISESQRQRVKLLRDALDTMTMAEVWEVMQAMGPPEEAGAPAPAHGPEDRVRLRDRWLGTRPAQLLATGGQLCTEPDRVAELAAVPLPFHVLSGTYDDTWPVPLLDEMALRLDARRTVVAGAEHSPNTDQPLPTARALADFWDDHPVPPRPYVR
notes: full-length ORF, no signal peptide, N-terminal His-tag (pET16b) kept, E. coli BL21(DE3), IMAC; 34665 Da with tag without initiator Met
Km [1]: 0.84 ± 0.05 mM | kcat [1]: 124 ± 2 s⁻¹ | kcat/Km [1]: 148000 ± 10000 M⁻¹ s⁻¹ | Km [2]: 0.071 ± 0.004 mM | kcat [2]: 41 ± 1 s⁻¹ | kcat/Km [2]: 578000 ± 36000 M⁻¹ s⁻¹ | Km [3]: 0.11 ± 0.018 mM | kcat [3]: 58 ± 3 s⁻¹ | kcat/Km [3]: 527000 ± 90000 M⁻¹ s⁻¹ | Km [4]: 0.27 ± 0.03 mM | kcat [4]: 199 ± 6 s⁻¹ | kcat/Km [4]: 737000 ± 77000 M⁻¹ s⁻¹ | Km [5]: 2.9 ± 0.8 mM | kcat [5]: 451 ± 10 s⁻¹ | kcat/Km [5]: 156000 ± 41000 M⁻¹ s⁻¹ | Km [6]: 90 ± 1 mM | kcat [6]: 151 ± 2 s⁻¹ | kcat/Km [6]: 1700 ± 30 M⁻¹ s⁻¹ | Km [7]: 0.62 ± 0.3 mM | kcat [7]: 14 ± 1 s⁻¹ | kcat/Km [7]: 23000 ± 12000 M⁻¹ s⁻¹

Reference: paper PMC3292560, “Isolation and Characterization of EstC, a New Cold-Active Esterase from Streptomyces coelicolor A3(2)” (PLoS ONE, 2012)
